From patent publication US20070111253A1 (MERCK, published 2007)

B1: rhDkk-1 comprising a polyhistidine sequence at the carboxy terminus, labeled with europium chelate N1-isothiocyanate (Eu-rhDkk-1) (ligand, not shown: small tags and cut ends)
chain: TLNSVLNSNAIKNLPPPLGGAAGHPGSAVSAAPGILYPGGNKYQTIDNYQPYPCAEDEECGTDEYCASPTRGGDAGVQICLACRKRRKRCMRHAMCCPGNYCKNGICVSSDQNNFRGEIEETITESFGNDHSTLDGYSRRTTLSSKMYHSKGQEGSVCLRSSDCATGLCCARHFWSKICKPVLKEGQVCTKHRRKGSHGLEIFQRCYCGEGLSCRIQKDHHQASNSSRLHTCQRH
modifications: labeled with europium chelate N1-isothiocyanate, about 9 Eu molecules per protein (sites not given)
notes: Produced in baculovirus-infected insect cells and purified on a nickel column; also called labeled RhDkk-1 protein; polyhistidine-tagged RhDkk-1
B2: rhesus monkey dickkopf-1 (rhDkk-1), unlabeled competitor (ligand)
chain: B1 chain

What was measured:
[1] = target: T1, human low-density lipoprotein receptor related protein 5 (LRP5) (human, UniProt O75197 32-1615); assay: cell binding to HEK 293 cells stably overexpressing human LRP5, time resolved fluorescence of europium label
T1 construct: whole, on cells; also called human LRP5

[2] = target: T1, human low-density lipoprotein receptor …; assay: competition with Eu-rhDkk-1 for binding to human LRP5 on HEK 293 cells, time resolved fluorescence
Method: The rhDkk-1-LRP5 binding assays were carried out as follows. The recombinant HEK 293 cells stably overexpressing human LRP5 were plated into the wells of white/white, 384-well, PDL plates (BD Biosciences, San Jose, Calif.). Each well contained about 10,000 cells and 30 μL of medium containing 2.5% FBS. The next day, to each well, 250 nL of an analyte was added (high concentration copy, CyBi Disk) for final a concentration of about 30 μM. Next, 5 μL of Eu-rhDkk-1 (1 nM) was added to each of the wells (CyBi Well, 0.1 nM final concentration). After incubating at 37° C. for 30 minutes, the wells were washed four times each with a wash solution (Tris-buffered saline, pH 8.0) containing 0.02% Tween-20). After the final wash, 20 μL of Enhancement Solution (Perkin Elmer) was added to each of the wells. After incubating the wells in Enhancement Solution for 30 minutes at room temperature, the wells were vortexed and the time resolved fluorescence from the wells read using the […], a CCD-based optical imaging instrument that can measure fluorescence (Amersham Biosciences, Piscataway, N.J.).

[3] = target: T1, human low-density lipoprotein receptor …; assay: competition with rhDkk-1-GFP fusion protein for binding to LRP5 on HEK 293 cells, fluorescence imaging (INCell 3000)
Method: The rhDkk-1-GFP fusion protein-LRP5 binding assays were as follows. Recombinant HEK-293 cells stably overexpressing human LRP5 were plated into the wells of a 384-well tissue culture plate (Corning) at a concentration of about 6,000 cells/well. Each well contained 45 μL of phenol red-free DMEM containing 2.5% FBS. To each well, an analyte was added to give a final concentration of 15 μM. A minute later, 5 μL of conditioned medium containing rhDkk-1-GFP and 10 μM DRAQ5 nuclear stain is added to each well and the wells incubated at 37 °C for 25 minutes. Imaging and evaluation of rhDkk-1-GFP fusion protein binding to the recombinant cells overexpressing LRP5 was determined using an INCell 3000 imager (Amersham, Piscataway, N.J.).

T1 sequence (O75197 32-1615): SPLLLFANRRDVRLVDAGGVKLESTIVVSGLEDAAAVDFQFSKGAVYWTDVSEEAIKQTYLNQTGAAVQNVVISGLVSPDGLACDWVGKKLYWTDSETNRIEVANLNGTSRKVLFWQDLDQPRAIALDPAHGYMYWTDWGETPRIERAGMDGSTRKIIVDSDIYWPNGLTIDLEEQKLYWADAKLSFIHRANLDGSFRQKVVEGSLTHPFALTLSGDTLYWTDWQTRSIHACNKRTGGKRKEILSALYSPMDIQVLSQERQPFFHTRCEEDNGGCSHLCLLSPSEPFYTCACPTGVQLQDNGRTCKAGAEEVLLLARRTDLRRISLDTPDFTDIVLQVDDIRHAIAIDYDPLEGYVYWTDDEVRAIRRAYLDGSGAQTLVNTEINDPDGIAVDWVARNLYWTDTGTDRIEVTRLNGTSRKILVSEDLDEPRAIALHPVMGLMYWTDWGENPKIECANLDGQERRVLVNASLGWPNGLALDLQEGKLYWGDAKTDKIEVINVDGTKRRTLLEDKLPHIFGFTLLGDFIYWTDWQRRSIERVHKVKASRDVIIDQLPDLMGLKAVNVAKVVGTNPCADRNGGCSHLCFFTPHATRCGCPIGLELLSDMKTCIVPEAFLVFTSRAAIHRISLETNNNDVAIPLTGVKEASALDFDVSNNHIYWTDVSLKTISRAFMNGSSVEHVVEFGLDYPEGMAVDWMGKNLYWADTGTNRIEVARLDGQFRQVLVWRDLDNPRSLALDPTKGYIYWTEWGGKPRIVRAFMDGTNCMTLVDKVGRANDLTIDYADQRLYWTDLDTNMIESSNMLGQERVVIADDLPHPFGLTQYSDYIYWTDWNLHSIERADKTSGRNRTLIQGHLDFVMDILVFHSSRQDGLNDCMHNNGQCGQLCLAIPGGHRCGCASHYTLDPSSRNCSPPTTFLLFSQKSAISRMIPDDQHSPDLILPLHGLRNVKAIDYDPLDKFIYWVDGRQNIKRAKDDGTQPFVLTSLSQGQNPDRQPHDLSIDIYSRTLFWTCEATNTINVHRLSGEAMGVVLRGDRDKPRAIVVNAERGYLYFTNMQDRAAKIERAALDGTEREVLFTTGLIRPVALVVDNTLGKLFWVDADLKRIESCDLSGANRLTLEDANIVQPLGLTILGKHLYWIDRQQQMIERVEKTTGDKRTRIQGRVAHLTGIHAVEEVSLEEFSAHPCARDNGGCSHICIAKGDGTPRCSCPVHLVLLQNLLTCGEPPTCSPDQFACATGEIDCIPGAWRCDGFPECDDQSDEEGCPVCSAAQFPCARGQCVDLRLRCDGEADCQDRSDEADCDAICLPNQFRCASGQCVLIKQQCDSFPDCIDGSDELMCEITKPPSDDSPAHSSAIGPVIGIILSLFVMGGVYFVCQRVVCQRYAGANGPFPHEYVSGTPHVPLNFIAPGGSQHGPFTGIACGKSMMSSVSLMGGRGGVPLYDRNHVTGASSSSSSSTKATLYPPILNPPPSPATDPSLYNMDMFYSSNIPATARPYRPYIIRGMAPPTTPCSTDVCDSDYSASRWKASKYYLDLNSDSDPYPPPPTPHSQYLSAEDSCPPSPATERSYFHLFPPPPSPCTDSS

| Binder | Kd [1] | IC50 [2] | IC50 [3] |
| --- | --- | --- | --- |
| B1 | ~1 nM | – | – |
| B2 | – | ~0.2 nM | ~1 nM |
